Test results published in US20170081400A1 (CEPHALON, published 2017).

T1: human TL1A extracellular domain with N-terminal HIS and FLAG tag (human, UniProt O95150 72-251)
T1 construct: whole entry named. ~70 kDa fraction purified by gel filtration
T1 sequence: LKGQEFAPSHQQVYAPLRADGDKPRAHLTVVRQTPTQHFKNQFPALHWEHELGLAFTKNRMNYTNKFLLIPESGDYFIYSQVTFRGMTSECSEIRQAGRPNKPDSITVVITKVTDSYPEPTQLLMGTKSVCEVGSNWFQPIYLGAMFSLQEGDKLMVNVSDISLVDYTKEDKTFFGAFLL


Experiments:
[1] = biological target: T1, human TL1A extracellular domain with …; assay: SPR run 3; supernatant on Protein A; TL1A 10 ug/mL; timepoint 59
Text: (§1) 1.5. Antibody expression and antigen binding as determined by SPR. Using a CM5 sensor chip (GE Healthcare) Protein A (Pierce) was coupled to the chip surface using an amine coupling kit (GE Healthcare). Protein A was coupled on flow cell 1 and 2 (or alternatively 3 and 4) using a BIACORE® T200. […] The amount of supernatant or purified protein (as well as the concentration) injected during the capture stage varied between runs and is specified in the header of the Tables 3-11. At the end of injection of the supernatant or purified antibody the change in response units was measured. This value was reported as Capture Level in Tables 3-11. […] The response units were measured prior to the end of the dissociation phase. […] The sensorgrams were double referenced (flow cell 2 is subtracted from flow cell 1 and a buffer blank). As there were a large number of antibody variants to screen, these were screened across different runs (Tables 3-11). […] A summary of the conditions used in each run is below:
(§2) 2.1. […] In some experiment the antibodies were purified using Protein A chromatography (See 1.4) and purified antibodies were used in BIACORE® (GE Healthcare) experiments.

[2] = biological target: T1, human TL1A extracellular domain with …; assay: SPR run 3; supernatant on Protein A; TL1A 10 ug/mL; timepoint 590
Text: as §1, §2

Binder	TL1A Binding Level (Early) [1] [RU]	TL1A Binding Level (Late) [2] [RU]
320-261 (antibody, human IgG1, name in Kabat numbering, V domains shown, human IgG1, lambda) VH: QVQLVQSGAEVKKPGASVKVSCKASGYTFTSYDINWVRQAPGQGLEWMGWLNPNSGNTGYAQKFQGRVTMTADRSTSTAYMELSSLRSEDTAVYYCAREVPETAAFEYWGQGTLVTVSS VL: QSVLTQPPSVSGAPGQRVTISCTSSSSDIGDGLGVHWYQQLPGTAPKLLIEGYYNRPSGVPDRFSGSKSGTSASLTITGLLPEDEGDYYCQSYDGTLSALFGGGTKLTVLG	86	29
320-281 (antibody, human IgG1, name in Kabat numbering, V domains shown, human IgG1, lambda) VH: QVQLVQSGAEVKKPGASVKVSCKASGYTFTSYDINWVRQAPGQGLEWMGWLNPNSGNTGYAQKFQGRVTMTADRSTSTAYMELSSLRSEDTAVYYCAREVPETAAFEYWGQGTLVTVSS VL: QSVLTQPPSVSGAPGQRVTISCTSSSSDIGAGKGVHWYQQLPGTAPKLLIEGYYNRPSGVPDRFSGSKSGTSASLTITGLLPEDEGDYYCQSYDGTLSALFGGGTKLTVLG	22	6
320-293 (antibody, human IgG1, name in Kabat numbering, V domains shown, human IgG1, lambda) VH: QVQLVQSGAEVKKPGASVKVSCKASGYTFTSYDINWVRQAPGQGLEWMGWLNPNSGNTGYAQKFQGRVTMTADRSTSTAYMELSSLRSEDTAVYYCAREVPETAAFEYWGQGTLVTVSS VL: QSVLTQPPSVSGAPGQRVTISCTSSSSDIGAGLGAHWYQQLPGTAPKLLIEGYYNRPSGVPDRFSGSKSGTSASLTITGLLPEDEGDYYCQSYDGTLSALFGGGTKLTVLG	104	86
320-282 (antibody, human IgG1, name in Kabat numbering, V domains shown, human IgG1, lambda) VH: QVQLVQSGAEVKKPGASVKVSCKASGYTFTSYDINWVRQAPGQGLEWMGWLNPNSGNTGYAQKFQGRVTMTADRSTSTAYMELSSLRSEDTAVYYCAREVPETAAFEYWGQGTLVTVSS VL: QSVLTQPPSVSGAPGQRVTISCTSSSSDIGAGWGVHWYQQLPGTAPKLLIEGYYNRPSGVPDRFSGSKSGTSASLTITGLLPEDEGDYYCQSYDGTLSALFGGGTKLTVLG	75	16
320-268 (antibody, human IgG1, name in Kabat numbering, V domains shown, human IgG1, lambda) VH: QVQLVQSGAEVKKPGASVKVSCKASGYTFTSYDINWVRQAPGQGLEWMGWLNPNSGNTGYAQKFQGRVTMTADRSTSTAYMELSSLRSEDTAVYYCAREVPETAAFEYWGQGTLVTVSS VL: QSVLTQPPSVSGAPGQRVTISCTSSSSDIGASLGVHWYQQLPGTAPKLLIEGYYNRPSGVPDRFSGSKSGTSASLTITGLLPEDEGDYYCQSYDGTLSALFGGGTKLTVLG	28	7
320-265 (antibody, human IgG1, name in Kabat numbering, V domains shown, human IgG1, lambda) VH: QVQLVQSGAEVKKPGASVKVSCKASGYTFTSYDINWVRQAPGQGLEWMGWLNPNSGNTGYAQKFQGRVTMTADRSTSTAYMELSSLRSEDTAVYYCAREVPETAAFEYWGQGTLVTVSS VL: QSVLTQPPSVSGAPGQRVTISCTSSSSDIGWGLGVHWYQQLPGTAPKLLIEGYYNRPSGVPDRFSGSKSGTSASLTITGLLPEDEGDYYCQSYDGTLSALFGGGTKLTVLG	168	69
320-276 (antibody, human IgG1, name in Kabat numbering, V domains shown, human IgG1, lambda) VH: QVQLVQSGAEVKKPGASVKVSCKASGYTFTSYDINWVRQAPGQGLEWMGWLNPNSGNTGYAQKFQGRVTMTADRSTSTAYMELSSLRSEDTAVYYCAREVPETAAFEYWGQGTLVTVSS VL: QSVLTQPPSVSGAPGQRVTISCTSSSSDIGAGAGVHWYQQLPGTAPKLLIEGYYNRPSGVPDRFSGSKSGTSASLTITGLLPEDEGDYYCQSYDGTLSALFGGGTKLTVLG	244	215
320-264 (antibody, human IgG1, name in Kabat numbering, V domains shown, human IgG1, lambda) VH: QVQLVQSGAEVKKPGASVKVSCKASGYTFTSYDINWVRQAPGQGLEWMGWLNPNSGNTGYAQKFQGRVTMTADRSTSTAYMELSSLRSEDTAVYYCAREVPETAAFEYWGQGTLVTVSS VL: QSVLTQPPSVSGAPGQRVTISCTSSSSDIGLGLGVHWYQQLPGTAPKLLIEGYYNRPSGVPDRFSGSKSGTSASLTITGLLPEDEGDYYCQSYDGTLSALFGGGTKLTVLG	199	184
320-279 (antibody, human IgG1, name in Kabat numbering, V domains shown, human IgG1, lambda) VH: QVQLVQSGAEVKKPGASVKVSCKASGYTFTSYDINWVRQAPGQGLEWMGWLNPNSGNTGYAQKFQGRVTMTADRSTSTAYMELSSLRSEDTAVYYCAREVPETAAFEYWGQGTLVTVSS VL: QSVLTQPPSVSGAPGQRVTISCTSSSSDIGAGDGVHWYQQLPGTAPKLLIEGYYNRPSGVPDRFSGSKSGTSASLTITGLLPEDEGDYYCQSYDGTLSALFGGGTKLTVLG	144	128
320-292 (antibody, human IgG1, name in Kabat numbering, V domains shown, human IgG1, lambda) VH: QVQLVQSGAEVKKPGASVKVSCKASGYTFTSYDINWVRQAPGQGLEWMGWLNPNSGNTGYAQKFQGRVTMTADRSTSTAYMELSSLRSEDTAVYYCAREVPETAAFEYWGQGTLVTVSS VL: QSVLTQPPSVSGAPGQRVTISCTSSSSDIGAGLYVHWYQQLPGTAPKLLIEGYYNRPSGVPDRFSGSKSGTSASLTITGLLPEDEGDYYCQSYDGTLSALFGGGTKLTVLG	111	94
320-275 (antibody, human IgG1, name in Kabat numbering, V domains shown, human IgG1, lambda) VH: QVQLVQSGAEVKKPGASVKVSCKASGYTFTSYDINWVRQAPGQGLEWMGWLNPNSGNTGYAQKFQGRVTMTADRSTSTAYMELSSLRSEDTAVYYCAREVPETAAFEYWGQGTLVTVSS VL: QSVLTQPPSVSGAPGQRVTISCTSSSSDIGAYLGVHWYQQLPGTAPKLLIEGYYNRPSGVPDRFSGSKSGTSASLTITGLLPEDEGDYYCQSYDGTLSALFGGGTKLTVLG	44	10
320-262 (antibody, human IgG1, name in Kabat numbering, V domains shown, human IgG1, lambda) VH: QVQLVQSGAEVKKPGASVKVSCKASGYTFTSYDINWVRQAPGQGLEWMGWLNPNSGNTGYAQKFQGRVTMTADRSTSTAYMELSSLRSEDTAVYYCAREVPETAAFEYWGQGTLVTVSS VL: QSVLTQPPSVSGAPGQRVTISCTSSSSDIGHGLGVHWYQQLPGTAPKLLIEGYYNRPSGVPDRFSGSKSGTSASLTITGLLPEDEGDYYCQSYDGTLSALFGGGTKLTVLG	209	190
320-271 (antibody, human IgG1, name in Kabat numbering, V domains shown, human IgG1, lambda) VH: QVQLVQSGAEVKKPGASVKVSCKASGYTFTSYDINWVRQAPGQGLEWMGWLNPNSGNTGYAQKFQGRVTMTADRSTSTAYMELSSLRSEDTAVYYCAREVPETAAFEYWGQGTLVTVSS VL: QSVLTQPPSVSGAPGQRVTISCTSSSSDIGAHLGVHWYQQLPGTAPKLLIEGYYNRPSGVPDRFSGSKSGTSASLTITGLLPEDEGDYYCQSYDGTLSALFGGGTKLTVLG	106	30
320-295 (antibody, human IgG1, name in Kabat numbering, V domains shown, human IgG1, lambda) VH: QVQLVQSGAEVKKPGASVKVSCKASGYTFTSYDINWVRQAPGQGLEWMGWLNPNSGNTGYAQKFQGRVTMTADRSTSTAYMELSSLRSEDTAVYYCAREVPETAAFEYWGQGTLVTVSS VL: QSVLTQPPSVSGAPGQRVTISCTSSSSDIGAGLGQHWYQQLPGTAPKLLIEGYYNRPSGVPDRFSGSKSGTSASLTITGLLPEDEGDYYCQSYDGTLSALFGGGTKLTVLG	109	94
320-269 (antibody, human IgG1, name in Kabat numbering, V domains shown, human IgG1, lambda) VH: QVQLVQSGAEVKKPGASVKVSCKASGYTFTSYDINWVRQAPGQGLEWMGWLNPNSGNTGYAQKFQGRVTMTADRSTSTAYMELSSLRSEDTAVYYCAREVPETAAFEYWGQGTLVTVSS VL: QSVLTQPPSVSGAPGQRVTISCTSSSSDIGAQLGVHWYQQLPGTAPKLLIEGYYNRPSGVPDRFSGSKSGTSASLTITGLLPEDEGDYYCQSYDGTLSALFGGGTKLTVLG	126	93
320-294 (antibody, human IgG1, name in Kabat numbering, V domains shown, human IgG1, lambda) VH: QVQLVQSGAEVKKPGASVKVSCKASGYTFTSYDINWVRQAPGQGLEWMGWLNPNSGNTGYAQKFQGRVTMTADRSTSTAYMELSSLRSEDTAVYYCAREVPETAAFEYWGQGTLVTVSS VL: QSVLTQPPSVSGAPGQRVTISCTSSSSDIGAGLGSHWYQQLPGTAPKLLIEGYYNRPSGVPDRFSGSKSGTSASLTITGLLPEDEGDYYCQSYDGTLSALFGGGTKLTVLG	79	61
320-266 (antibody, human IgG1, name in Kabat numbering, V domains shown, human IgG1, lambda) VH: QVQLVQSGAEVKKPGASVKVSCKASGYTFTSYDINWVRQAPGQGLEWMGWLNPNSGNTGYAQKFQGRVTMTADRSTSTAYMELSSLRSEDTAVYYCAREVPETAAFEYWGQGTLVTVSS VL: QSVLTQPPSVSGAPGQRVTISCTSSSSDIGYGLGVHWYQQLPGTAPKLLIEGYYNRPSGVPDRFSGSKSGTSASLTITGLLPEDEGDYYCQSYDGTLSALFGGGTKLTVLG	218	192
